Reference: patent US20240343818A1, “Antibodies Having Humanized Framework Regions” (priority 2021, published 2024)

Experiments:
L-82 xenograft = L-82 xenograft with CD30 ADCs; assay type: in vivo, mice
Description: Female NOD/SCID mice were used (8 mice/group) for the study. Animals were inoculated subcutaneously in the flank with 10 million cells in 50% PBS/50% Matrigel. When tumors reached an average volume of 100 mm^3, all animals were treated (Day 0) with a single 10 mg/kg intravenous dose of human IgG. Then, on Day 1, animals were treated with vehicle alone, with unconjugated antibody (3 mg/kg), or with an ADC at 1.5 or 3 mg/kg. The animals were monitored twice weekly for body weight and tumor size. Animals were euthanized when tumors reached 2000 mm^3. ADCs were highly efficacious in this study.

Karpas 299 xenograft = Karpas 299 xenograft with CD30 ADCs; assay type: in vivo, mice
Description: Female CB17/SCID mice were used (6 mice/group) for the study. Animals were inoculated subcutaneously in the flank with 5 million cells in PBS. When tumors reached an average volume of 214 mm^3, animals were treated with vehicle alone, with unconjugated antibody (3 mg/kg), or with an ADC at 1.5 or 3 mg/kg. The animals were monitored twice weekly for body weight and tumor size. Animals were euthanized when tumors reached 2000 mm^3. ADCs were highly efficacious in this study.

[1] = Melting temperature by differential scanning fluorimetry; assay type: physicochemical
[2] = Forced stability of ADCs, high-molecular weight species by size-exclusion chromatography; assay type: physicochemical; details: for HWM pH 5.5, 3 d 45° C.: pH 5.5, 3 d at 45° C.; for HWM pH 5.5, 3 d −80° C.: pH 5.5, 3 d at −80° C.; for HWM pH 7.2, 3 d 45° C.: pH 7.2, 3 d at 45° C.; for HWM pH 7.2, 3 d −80° C.: pH 7.2, 3 d at −80° C.
Text: ADCs were conjugated at the antibody heavy chain C-terminus to a noncleavable linker bearing a maytansine payload for a DAR of ˜1.9. Samples were placed in buffer at the designated pH and temperature for 3 days, then analyzed by size-exclusion chromatography. HMW, high-molecular weight species.

[3] = single intravenous dose, ADC 1.5 or 3 mg/kg, unconjugated antibody 3 mg/kg
[4] = ADC (heavy chain C-terminus, noncleavable maytansine linker-payload, DAR ~1.9)

Row | Molecule | complete responses (L-82 xenograft; L-82 xenograft, NOD/SCID mice, single intravenous dose 3 mg/kg (equal dosing)) | complete responses (Karpas 299 xenograft; Karpas 299 xenograft, CB17/SCID mice, 6 mice/group, single intravenous dose 3 mg/kg (equal dosing)) | efficacy in L-82 xenograft (L-82 xenograft; [3]) | efficacy in Karpas 299 xenograft (Karpas 299 xenograft; [3]) | Fab Tm [1, 4] | Fab Tm ([1]; Antibody) | HWM pH 5.5, 3 d 45° C. [2] | HWM pH 5.5, 3 d −80° C. [2] | HWM pH 7.2, 3 d 45° C. [2] | HWM pH 7.2, 3 d −80° C. [2]
1 | Adcetris: anti-CD30 ADC used as comparator in the xenograft studies [reference compound] | 8 out of 8 mice/group | 6/6 |  |  |  |  |  |  |  | 
2 | VH4/VL4 antibody (antibody, V domains shown) VH: QVQLVQSGAEVKKPGASVKVSCKASGYTFTDYYITWVRQAPGQGLEWMGWIYPGSGNTKYNEKFKGRVTITVDTSASTAYMELSSLRSEDTAVYYCANYGNYWFAYWGQGTLVTVSS VL: DIVLTQSPDSLAVSLGERATINCKASQSVDFDGDSYMNWYQQKPGQPPKLLIYAASNRESGVPDRFSGSGSGTDFTLTISSLQAEDVAVYYCQQSNEDPWTFGGGTKVEIK |  |  | minimal activity | minimal activity |  |  |  |  |  | 
3 | H4/L2 (conjugate) VH: QVQLVQSGAEVKKPGASVKVSCKASGYTFTDYYITWVRQAPGQGLEWMGWIYPGSGNTKYNEKFKGRVTITVDTSASTAYMELSSLRSEDTAVYYCANYGNYWFAYWGQGTLVTVSS VL: DIVMTQSPASLAVSLGERATISCKSSQSVDFDGDSYLNWYQQKPGQPPKLLIYAASTRESGVPARFSGSGSGTDFTLTISSLQEEDVATYYCQQSNEDPWTFGGGTKVEIK |  |  |  |  | 73 °C | 75.54 °C | 6.18% | 1.24% | 30.38% | 2.37%
4 | H1/L4 (conjugate) VH: QVQLQQSGPEVVKPGASVKVSCKASGYTFTDYYMTWVRQKPGQGLEWMGWIYPGSGNTKYNQKFKGRVTITVDTSSSTAFMELSSLTSEDTAVYFCANYGNYWFAYWGQGTQVTVSA VL: DIVLTQSPDSLAVSLGERATINCKASQSVDFDGDSYMNWYQQKPGQPPKLLIYAASNRESGVPDRFSGSGSGTDFTLTISSLQAEDVAVYYCQQSNEDPWTFGGGTKVEIK |  |  |  |  | 80 °C | 81.17 °C | 10.05% | 1.66% | 16.42% | 2.90%
5 | H4/L4 (conjugate) VH: QVQLVQSGAEVKKPGASVKVSCKASGYTFTDYYITWVRQAPGQGLEWMGWIYPGSGNTKYNEKFKGRVTITVDTSASTAYMELSSLRSEDTAVYYCANYGNYWFAYWGQGTLVTVSS VL: DIVLTQSPDSLAVSLGERATINCKASQSVDFDGDSYMNWYQQKPGQPPKLLIYAASNRESGVPDRFSGSGSGTDFTLTISSLQAEDVAVYYCQQSNEDPWTFGGGTKVEIK |  |  |  |  | 82 °C | 80.43 °C | 7.70% | 1.66% | 23.28% | 3.14%
